The values that follow are results of earlier work, collected in PMC4166121.

In general, pKd refers to −log10 of the Kd, conventionally taken in molar units.

pKd: −log10 of the molar value.

The target in the series is p38 MAPK (UniProt Q16539).
Chain of p38 MAPK (Q16539 2-360): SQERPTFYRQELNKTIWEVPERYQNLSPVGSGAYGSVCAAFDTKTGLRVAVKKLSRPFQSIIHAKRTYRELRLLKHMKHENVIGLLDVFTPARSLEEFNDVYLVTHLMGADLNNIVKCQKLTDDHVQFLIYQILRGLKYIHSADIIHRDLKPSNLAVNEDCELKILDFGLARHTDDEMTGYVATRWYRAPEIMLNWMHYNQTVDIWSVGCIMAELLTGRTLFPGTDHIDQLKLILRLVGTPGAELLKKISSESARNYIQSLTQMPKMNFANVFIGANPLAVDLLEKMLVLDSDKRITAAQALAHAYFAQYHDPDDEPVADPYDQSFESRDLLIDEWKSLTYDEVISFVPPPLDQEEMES

Chain of eNOS (P29474 2-1203): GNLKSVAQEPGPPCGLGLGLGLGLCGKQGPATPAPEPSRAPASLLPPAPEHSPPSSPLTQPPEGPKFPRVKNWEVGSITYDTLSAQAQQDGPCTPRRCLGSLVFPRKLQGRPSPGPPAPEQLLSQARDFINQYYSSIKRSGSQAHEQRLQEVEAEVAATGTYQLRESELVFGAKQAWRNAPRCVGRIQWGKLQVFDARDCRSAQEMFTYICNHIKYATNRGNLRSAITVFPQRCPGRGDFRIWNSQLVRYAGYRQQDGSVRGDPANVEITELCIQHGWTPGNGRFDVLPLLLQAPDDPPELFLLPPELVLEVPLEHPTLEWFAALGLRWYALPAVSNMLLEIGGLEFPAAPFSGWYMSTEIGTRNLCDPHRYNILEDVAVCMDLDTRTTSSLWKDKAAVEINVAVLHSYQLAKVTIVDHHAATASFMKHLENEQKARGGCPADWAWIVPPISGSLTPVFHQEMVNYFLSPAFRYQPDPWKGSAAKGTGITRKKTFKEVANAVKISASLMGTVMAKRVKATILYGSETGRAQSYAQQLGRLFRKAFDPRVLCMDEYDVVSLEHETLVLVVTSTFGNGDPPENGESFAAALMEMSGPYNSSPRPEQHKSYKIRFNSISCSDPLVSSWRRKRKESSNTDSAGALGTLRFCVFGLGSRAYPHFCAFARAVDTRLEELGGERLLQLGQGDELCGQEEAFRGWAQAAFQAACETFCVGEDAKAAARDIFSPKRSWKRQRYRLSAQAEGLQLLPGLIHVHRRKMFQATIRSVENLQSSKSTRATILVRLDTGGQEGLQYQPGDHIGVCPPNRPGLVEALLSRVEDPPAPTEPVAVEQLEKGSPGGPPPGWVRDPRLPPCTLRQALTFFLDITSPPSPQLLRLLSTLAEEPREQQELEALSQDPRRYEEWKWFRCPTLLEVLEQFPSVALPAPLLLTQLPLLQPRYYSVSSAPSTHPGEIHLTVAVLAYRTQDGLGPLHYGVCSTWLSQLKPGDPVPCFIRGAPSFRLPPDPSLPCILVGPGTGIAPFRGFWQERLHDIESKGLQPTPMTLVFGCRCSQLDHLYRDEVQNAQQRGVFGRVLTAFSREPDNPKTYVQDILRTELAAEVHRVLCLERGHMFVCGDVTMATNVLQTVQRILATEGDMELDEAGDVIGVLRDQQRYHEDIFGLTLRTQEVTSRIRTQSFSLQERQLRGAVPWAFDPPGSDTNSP

In the case of eNOS (from UniProt P29474), the pKd is 10.10.
